Data: article PMC6757032

Molecular target: pre-formed trans-SNARE complexes between V- and T-liposomes (syntaxin-1A S186C-TMR, cysteine-free SNAP-25a, synaptobrevin-2 L26C-Alexa-488) (rat), P32851
Sequence (P32851 whole entry C145A/S186C/C271A/C272A, chain 1 of 3): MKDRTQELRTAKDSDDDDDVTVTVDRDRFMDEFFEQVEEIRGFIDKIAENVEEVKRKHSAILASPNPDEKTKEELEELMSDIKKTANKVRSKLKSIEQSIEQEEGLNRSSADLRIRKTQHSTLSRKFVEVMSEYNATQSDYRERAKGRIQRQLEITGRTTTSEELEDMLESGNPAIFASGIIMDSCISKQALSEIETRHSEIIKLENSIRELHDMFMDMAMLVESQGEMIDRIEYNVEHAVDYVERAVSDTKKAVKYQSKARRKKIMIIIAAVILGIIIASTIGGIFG
Sequence (P60881 other isoform, or with tags, fused parts or gaps, stated change not applied, chain 2 of 3, further chain): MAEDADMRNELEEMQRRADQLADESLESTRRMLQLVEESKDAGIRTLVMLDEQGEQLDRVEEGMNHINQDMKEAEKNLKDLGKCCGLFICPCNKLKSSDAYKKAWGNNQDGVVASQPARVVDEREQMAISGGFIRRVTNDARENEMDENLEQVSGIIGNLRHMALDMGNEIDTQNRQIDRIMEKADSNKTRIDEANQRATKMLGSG
Sequence (P63045 other isoform, or with tags, fused parts or gaps, stated change not applied, chain 3 of 3, further chain): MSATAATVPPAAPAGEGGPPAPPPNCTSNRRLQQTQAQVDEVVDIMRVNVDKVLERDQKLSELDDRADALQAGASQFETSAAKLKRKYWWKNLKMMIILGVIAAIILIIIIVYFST

B1: full-length Bos Taurus αSNAP, P81125 1-295 (natural protein)
chain: MDNSGKEAEAMALLAEAERKVKNSQSFFSGLFGGSSKIEEACEIYARAANMFKMAKNWSAAGSAFCQAAHVHLQLQSKHDAATCFVDAGNAFKKADPQEAINCLMRAIEIYTDMGRFTIAAKHHISIAEIYETELVDIEKAIAHYEQSADYYKGEESNSSANKCLLKVAGYAAQLEQYQKAIDIYEQVGTNAMDSPLLKYSAKDYFFKAALCHFCIDMLNAKLAVQKYEELFPAFSDSRECKRIKKLLEAHEEQNVDSYTEAVKEYDSISRLDQWLTTMLLRIKKTIQGDEEDLR
modifications: here or on the partner: tetramethylrhodamine on the cysteine at residue 186 | Alexa-488 on the cysteine at residue 26
- inhibition of lipid mixing (DiD de-quenching at 37 °C) mediated by trans-SNARE complexes pre-formed between V- and T-liposomes; titration with WT αSNAP: 170 nM
